In patent publication US20020192214A1 one finds Ca^2+-flux (intracellular Ca^2+ levels) data, which are given here for 1 substance.

In the assay the target is human eosinophil eotaxin receptor CC CKR3, stably expressed in AML14.3D10 cells (human) (UniProt P51677). In words: cell-based or functional assay.
Sequence of human eosinophil eotaxin receptor CC CKR3, stably expressed in AML14.3D10 cells (human) (P51677 whole entry): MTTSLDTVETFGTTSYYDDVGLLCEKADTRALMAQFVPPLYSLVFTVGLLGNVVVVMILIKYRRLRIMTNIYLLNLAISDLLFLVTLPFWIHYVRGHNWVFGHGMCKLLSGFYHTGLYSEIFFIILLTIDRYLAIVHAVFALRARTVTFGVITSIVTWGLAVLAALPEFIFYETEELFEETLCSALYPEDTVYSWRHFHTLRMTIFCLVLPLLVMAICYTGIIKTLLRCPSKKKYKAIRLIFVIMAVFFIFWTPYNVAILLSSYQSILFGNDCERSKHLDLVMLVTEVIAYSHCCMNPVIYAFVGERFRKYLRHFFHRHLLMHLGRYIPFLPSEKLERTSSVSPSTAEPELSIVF

The substance “IL-8 (from UniProt P10145 28-99) (ligand)” showed a Ca^2+-flux (intracellular Ca^2+ levels) of over 1 µM.
